Results published in article PMC3352095, “Structure and function of FusB: an elongation factor G-binding fusidic acid resistance protein active in ribosomal translocation and recycling” (Open Biology, 2012).

Legend:
[1] = molecular target: T1, S. aureus EF-G (Staphylococcus aureus, UniProt P68790); assay: tripeptide (fMet-Phe-Phe) formation, quenched at […] s, HPLC; assay type: biochemical
T1 construct: gene fusA; full-length wild type, recombinant; assayed on E. coli 70S ribosomes with E. coli translation factors

[2] = molecular target: S. aureus elongation factor G (S. aureus) (UniProt P68790)
[3] = molecular target: S. aureus elongation factor G (S. aureus) (UniProt P68790); remark: listed apart in the source
[4] = molecular target: S. aureus elongation factor G (S. aureus) (UniProt P68790); remark: listed apart in the source
[5] = molecular target: S. aureus elongation factor G (S. aureus) (UniProt P68790); assay: SEC; 2 nmol EF-G (wild-type or hybrid) with or without 4 nmol FusB (twofold excess) in 100 µl gel filtration buffer (20 mM Tris pH 7.8, 300 mM NaCl) on Superdex200 10/300; shift in elution volume of the EF-G peak as read-out; hybrid G also with 2.5-fold excess of FusB

| Compound | inhibition at 150 µM [1] [%] | rate of splitting of the post-termination complex by S. aureus EF-G and RRF (Rayleigh light scattering) with FA 10 µM and FusB 1 µM (0.15 s^-1 without FA; blocked with FA alone) [2] [s⁻¹] | extent of tripeptide formation in 10 s with S. aureus EF-G, FA 150 µM (50 per cent with FA alone), FusB 1 µM [3] [per cent] | multiple- and single-round luciferase synthesis in a reconstituted E. coli transcription-translation system with S. aureus EF-G, FA 20 µM, FusB 1 µM; increase against the reactions with only FA [4] [fold] | stoichiometry N [5] |
| --- | --- | --- | --- | --- | --- |
| CC(=O)O[C@H]1C[C@@]2(C)[C@@H](C[C@@H](O)[C@H]3[C@@]4(C)CC[C@@H](O)[C@@H](C)[C@@H]4CC[C@@]32C)/C1=C(\CCC=C(C)C)C(=O)O [FA, fusidic acid] | 50 |  |  |  |  |
| FusB (natural protein) |  | 0.02 | 75 | < 5 | 1 |
